This experiment has as its target T1, Δ1–45 PRORP (human, UniProt O15091 46-583).
T1 construct: PRORP (MRPP3), human, without the predicted mitochondrial targeting signal (residues 1-45); also called MRPP3; Δ45-PRORP; source: E. coli BL21 (DE3) RIL, purified (HisTrap, TEV cleavage, heparin, Superdex 200); not shown: His6, N-terminal, cleaved
T1 sequence (looked up): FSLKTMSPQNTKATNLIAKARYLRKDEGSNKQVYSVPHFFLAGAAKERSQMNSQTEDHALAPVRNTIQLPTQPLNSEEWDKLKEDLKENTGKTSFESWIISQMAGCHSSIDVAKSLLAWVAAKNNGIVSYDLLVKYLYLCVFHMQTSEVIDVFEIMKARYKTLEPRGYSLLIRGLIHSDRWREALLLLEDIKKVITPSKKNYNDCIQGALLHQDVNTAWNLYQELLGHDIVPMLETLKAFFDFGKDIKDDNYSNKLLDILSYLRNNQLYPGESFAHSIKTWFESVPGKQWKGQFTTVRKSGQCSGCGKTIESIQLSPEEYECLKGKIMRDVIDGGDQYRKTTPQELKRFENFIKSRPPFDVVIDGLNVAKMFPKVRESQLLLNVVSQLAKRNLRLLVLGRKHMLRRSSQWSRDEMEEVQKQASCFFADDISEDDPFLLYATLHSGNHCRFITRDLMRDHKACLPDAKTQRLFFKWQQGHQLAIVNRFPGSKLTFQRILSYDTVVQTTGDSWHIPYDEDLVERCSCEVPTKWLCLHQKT
Nature of the experiment: cryo-EM structure; Δ1–39 TRMT10C–SDR5C1 complex mixed with pre-tRNA^Tyr and NADH, then PRORP added, 30 °C, 100 mM Tris-HCl pH 8.0, 100 mM NaCl, 250 μM EDTA (Mg2+-depleted), 2 mM DTT; complex purified on Superdex 200 Increase 3.2/300; single-particle cryo-EM, 3.0 Å. The settings on record: both partners purified.

B1: Δ1–39 TRMT10C (enzyme, human, UniProt Q7L0Y3 40-403, looked up)
chain: MSSKIPAVTYPKNESTPPSEELELDKWKTTMKSSVQEECVSTISSSKDEDPLAATREFIEMWRLLGREVPEHITEEELKTLMECVSNTAKKKYLKYLYTKEKVKKARQIKKEMKAAAREEAKNIKLLETTEEDKQKNFLFLRLWDRNMDIAMGWKGAQAMQFGQPLVFDMAYENYMKRKELQNTVSQLLESEGWNRRNVDPFHIYFCNLKIDGALHRELVKRYQEKWDKLLLTSTEKSHVDLFPKDSIIYLTADSPNVMTTFRHDKVYVIGSFVDKSMQPGTSLAKAKRLNLATECLPLDKYLQWEIGNKNLTLDQMIRILLCLKNNGNWQEALQFVPKRKHTGFLEISQHSQEFINRLKKAKT
notes: TRMT10C (MRPP1), human, without the predicted mitochondrial targeting signal (residues 1-39); 6x His tag and TEV site on TRMT10C only; tag cleaved by TEV protease during purification; also called MRPP1; Δ39 TRMT10C; source: E. coli BL21 (DE3) RIL, coexpressed with SDR5C1, copurified (HisTrap, TEV cleavage, heparin, Superdex 200); not shown: His6, N-terminal, cleaved
In the case of B1, the binding result is “binds”.
